Data taken from US20200277339A1 (GENOME PROTECTION, published 2020).

Columns and labels:
[1] = molecular target: TLR5 of the cell-based reporter assays; assay: cell-based or functional assay
[2] = molecular target: TLR5 of the cell-based reporter assays; assay: cell-based or functional assay; remark: listed apart in the source

Binder | Relative EC50 vs 502, Signaling (LecZ) [1] [fold vs 502] | Signaling EC50 Normalized by CBLB502 [2] [fold vs CBLB502] | Relative EC50 vs 502, Signaling (Luc) [1] [fold vs 502]
CBLB502 variant 485D (ligand) MSGLRINSAKDDAAGQAIANRFTSNIKGLTQASRNANDGISIAQTTEGALNEINNNLQRVRELSVQATNGTNSDSDLKSIQDEIQQRLEEIDRVSNQTQFNGVKVLSQDNQMKIQVGANDGETITIDLQKIDVKSLGLDGFNVNSPGSTANPLASIDSALSKVDAVRSSLGAIDSAITALGNTVTNLNSARSRIEDADYATEVSNMSKAQILQQAGLVPRGSHHHHHHG | 44 |  | 
CBLB502 mutant MIM4 (ligand) MRGSHHHHHHGMASMTGGQQMGRDLYDDDDKDPMAQVINTNSLSLLTQNNLNKSQSSLSSAIERLSSGLRINSAKDDAAGQAIANRFTSNIKGLTQASRNANDGISIAQTTEGALNEINNNLQRVRELSVQATNGTNSDSDLKSIQDEIQQRLEEIDRVSNQTQFNGVKVLSQDNQMKIQVGANDGETITIDLQKIDVKSLGLDGFNVNSPGISGGGGGILDSMGTLINEDAAAAKKSTANPLASIDSALSKVDAVRSSLGAIDSAITALGATVTALASAASRIEDADYATEVSNMSKAQILQQAGTSVLAQANQVPQNVLSLLR |  | 37 | 
CBLB502 variant 461 (ligand) MRGSHHHHHHGMASMTGGQQMGRDLYDLVPRGSAKDPMAQVINTNSLSLLTQNNLNKSQSSLSSAIERLSSGLRINSAKDDAAGQAIANRFTSNIKGLTQASRNANDGISIAQTTEGALNEINNNLQRVRELSVQATNGTNSDSDLKSIQDEIQQRLEEIDRVSNQTQFNGVKVLSQDNQMKIQVGANDGETITIDLQKIDVKSLGLDGFNVNSPGISGGGGGILDSMGTLINEDAAAAKKSTANPLASIDSALSKVDAVRSSLGAIQNRFDSAITNLGNTVTNLNSAR | 105 |  | 97
CBLB502 mutant 33MIMX (ligand) MRGSHHHHHHGMASMTGGQQMGRDLYDLVPRGSAKDPSGLRINSAKDDAAGQAIANRFTSNIKGLTQASRNAADGISIAQTTEGALNEINNNLQRVRELSVQATNGTNSDSDLKSIQDEIQQRLEEIDRVSNQTQANGVKVLSQDNAMKIQVGANDGAAITIDLQKIDVKSLGLDGFNVNSPGISGGGGGILDSMGTLINEDAAAAKKSTANPLASIDSALSKVDAVRSSLGAIQARFAAAIANLGNTVTNLNSARSRIEDADYATEVSNMSKAQILQQAGTSVLAQANQVPQNVLSLLR |  | 1.3 | 
CBLB502 (ligand) not shown | 1 |  | 1
CBLB502 mutant MIM1 (ligand) MRGSHHHHHHGMASMTGGQQMGRDLYDDDDKDPMAQVINTNSLSLLTQNNLNKSQSSLSSAIERLSSGLRINSAKDDAAGQAIANRFTSNIKGLTQASRNANDGISIAQTTEGALNEINNNLQRVRELSVQATNGTNSDSDLKSIQDEIQQRLEEIDRVSNQTQFNGVKVLSQDNQMKIQVGANDGETITIDLQKIDVKSLGLDGFNVNSPGISGGGGGILDSMGTLINEDAAAAKKSTANPLASIDSALSKVDAVRSSLGAIQNRFDSAITNLGNTVTALASARSRIEDADYATEVSNMSKAQILQQAGTSVLAQANQVPQNVLSLLR |  | 0.9 | 
CBLB502 mutant MIM5 (ligand) MRGSHHHHHHGMASMTGGQQMGRDLYDDDDKDPMAQVINTNSLSLLTQNNLNKSQSSLSSAIERLSSGLRINSAKDDAAGQAIANRFTSNIKGLTQASRNANDGISIAQTTEGALNEINNNLQRVRELSVQATNGTNSDSDLKSIQDEIQQRLEEIDRVSNQTQFNGVKVLSQDNQMKIQVGANDGETITIDLQKIDVKSLGLDGFNVNSPGISGGGGGILDSMGTLINEDAAAAKKSTANPLASIDSALSKVDAVRSSLGAIAKAFDSAITALGATVTALASAASRIEDADYATEVSNMSKAQILQQAGTSVLAQANQVPQNVLSLLR |  | 54 | 
CBLB502 mutant MIM2 (ligand) MRGSHHHHHHGMASMTGGQQMGRDLYDDDDKDPMAQVINTNSLSLLTQNNLNKSQSSLSSAIERLSSGLRINSAKDDAAGQAIANRFTSNIKGLTQASRNANDGISIAQTTEGALNEINNNLQRVRELSVQATNGTNSDSDLKSIQDEIQQRLEEIDRVSNQTQFNGVKVLSQDNQMKIQVGANDGETITIDLQKIDVKSLGLDGFNVNSPGISGGGGGILDSMGTLINEDAAAAKKSTANPLASIDSALSKVDAVRSSLGAIQNRFDSAITNLGNTVTALASAASRIEDADYATEVSNMSKAQILQQAGTSVLAQANQVPQNVLSLLR |  | 1.2 | 
CBLB502 mutant MIM3 (ligand) MRGSHHHHHHGMASMTGGQQMGRDLYDDDDKDPMAQVINTNSLSLLTQNNLNKSQSSLSSAIERLSSGLRINSAKDDAAGQAIANRFTSNIKGLTQASRNANDGISIAQTTEGALNEINNNLQRVRELSVQATNGTNSDSDLKSIQDEIQQRLEEIDRVSNQTQFNGVKVLSQDNQMKIQVGANDGETITIDLQKIDVKSLGLDGFNVNSPGISGGGGGILDSMGTLINEDAAAAKKSTANPLASIDSALSKVDAVRSSLGAIQNRFDSAITALGATVTALASAASRIEDADYATEVSNMSKAQILQQAGTSVLAQANQVPQNVLSLLR |  | 4.6 | 
CBLB502 variant 467 (ligand) MRGSHHHHHHGMASMTGGQQMGRDLYDLVPRGSAKDPMAQVINTNSLSLLTQNNLNKSQSSLSSAIERLSSGLRINSAKDDAAGQAIANRFTSNIKGLTQASRNANDGISIAQTTEGALNEINNNLQRVRELSVQATNGTNSDSDLKSIQDEIQQRLEEIDRVSNQTQFNGVKVLSQDNQMKIQVGANDGETITIDLQKIDVKSLGLDGFNVNSPGISGGGGGILDSMGTLINEDAAAAKKSTANPLASIDSALSKVDAVRSSLGAIQNRFDSAITNLGNTVTNLNSARSRIEDA | 57 |  | 71
CBLB502 variant 445 (ligand) MRGSHHHHHHGMASMTGGQQMGRDLYDLVPRGSAKDPMAQVINTNSLSLLTQNNLNKSQSSLSSAIERLSSGLRINSAKDDAAGQAIANRFTSNIKGLTQASRNANDGISIAQTTEGALNEINNNLQRVRELSVQATNGTNSDSDLKSIQDEIQQRLEEIDRVSNQTQFNGVKVLSQDNQMKIQVGANDGETITIDLQKIDVKSLGLDGFNVNSPGISGGGGGILDSMGTLINEDAAAAKKSTANPLASIDSALSKVDAVRSSLGAIQNRFD | 694 |  | 141000
CBLB502 variant MF227C (ligand) MSGLRINSAKDDAAGQAIANRFTSNIKGLTQASRNANDGISIAQTTEGALNEINNNLQRVRELSVQATNGTNSDSDLKSIQDEIQQRLEEIDRVSNQTQFNGVKVLSQDNQMKIQVGANDGETITIDLQKIDVKSLGLDGFNVNSPGSTANPLASIDSALSKVDAVRSSLGAIQNRFDSAITNLGNTVTNLNSARSRIEDADYANQVPQNVLSLLVPRGSHHHHHHG | 5.5 |  | 
CBLB502 mutant MIXC (ligand) MSGLRINSAKDDAAGQAIANRFTSNIKGLTQASRNANDGISIAQTTEGALNEINNNLQRVRELSVQATNGTNSDSDLKSIQDEIQQRLEEIDRVSNQTQFNGVKVLSQDNQMKIQVGANDGETITIDLQKIDVKSLGLDGFNVNSPGSTANPLASIDSALSKVDAVRSSLGAIQARFAAAIANLGNTVTNLNSARSRIEDADYATEVSNMSKAQILQQAGTSVLAQANQVPQNVLSLLVPRGSHHHHHHG |  | 1.5 | 
